Data published in publication doi:10.1101/2025.09.10.675378 (bioRxiv, 2025).

B1: hDVL3 PDZ-IDR2-DEP (aa 243-496) (domain or fragment)
chain: MSLNIITVTLNMEKYNFLGISIVGQSNERGDGGIYIGSIMKGGAVAADGRIEPGDMLLQVNEINFENMSNDDAVRVLREIVHKPGPITLTVAKCWDPSPRGCFTLPRSEPIRPIDPAAWVSHTAAMTGTFPAYGMSPSLSTITSTSSSITSSIPDTERLDDFHLSIHSDMAAIVKAMASPESGLEVRDRMWLKITIPNAFIGSDVVDWLYHNVEGFTDRREARKYASNLLKAGFIRHTVNKITFSEQCYYIFGD
B2: phosphorylated hDVL3 PDZ-IDR2-DEP (PDZ-pIDR2-DEP, aa 243-496) (domain or fragment)
chain: MSLNIITVTLNMEKYNFLGISIVGQSNERGDGGIYIGSIMKGGAVAADGRIEPGDMLLQVNEINFENMSNDDAVRVLREIVHKPGPITLTVAKCWDPSPRGCFTLPRSEPIRPIDPAAWVSHTAAMTGTFPAYGMSPSLSTITSTSSSITSSIPDTERLDDFHLSIHSDMAAIVKAMASPESGLEVRDRMWLKITIPNAFIGSDVVDWLYHNVEGFTDRREARKYASNLLKAGFIRHTVNKITFSEQCYYIFGD
modifications: 8-19 phosphates on S/T residues of IDR2 (native ESI-MS), added by CK1ε

Target: the molecule itself
Assay: native MS

Protein	binding result
B1	binds
B2	binds
